Measurements from article PMC8996997 (2022).

Biological target: His×6-YY1(wt) (human, UniProt P25490 1-414)
Experiment: SPR

Kd: 258 nM
B1: His×6-YY1(260–414) (domain or fragment)
chain: LPPGGIPGIDLSDPKQLAEFARMKPRKIKEDDAPRTIACPHKGCTKMFRDNSAMRKHLHTHGPRVHVCAECGKAFVESSKLKRHQLVHTGEKPFQCTFEGCGKRFSLDFNLRTHVRIHTGDRPYVCPFDGCNKKFAQSTNLKSHILTHAKAKNNQ
